Data: the supplement of paper PMC10065799, “High-throughput profiling of sequence recognition by tyrosine kinases and SH2 domains using bacterial peptide display” (eLife, 2023)

Key:
[1] = biological target: Grb2 SH2 (UniProt P62993); assay: SH2 binding enrichment of the phosphorylated peptide, bacterial display (enrichment ratio); higher = better substrate or ligand; peptides without Tyr show the background
[2] = biological target: c-Src SH2; assay: as above
[3] = biological target: SHP2-C SH2; assay: as above
[4] = biological target: EPHB2 (UniProt P29323); assay: phosphorylation enrichment, bacterial display (enrichment ratio); higher = better substrate or ligand; peptides without Tyr show the background
Sequence of EPHB2 (P29323 whole entry, looked up): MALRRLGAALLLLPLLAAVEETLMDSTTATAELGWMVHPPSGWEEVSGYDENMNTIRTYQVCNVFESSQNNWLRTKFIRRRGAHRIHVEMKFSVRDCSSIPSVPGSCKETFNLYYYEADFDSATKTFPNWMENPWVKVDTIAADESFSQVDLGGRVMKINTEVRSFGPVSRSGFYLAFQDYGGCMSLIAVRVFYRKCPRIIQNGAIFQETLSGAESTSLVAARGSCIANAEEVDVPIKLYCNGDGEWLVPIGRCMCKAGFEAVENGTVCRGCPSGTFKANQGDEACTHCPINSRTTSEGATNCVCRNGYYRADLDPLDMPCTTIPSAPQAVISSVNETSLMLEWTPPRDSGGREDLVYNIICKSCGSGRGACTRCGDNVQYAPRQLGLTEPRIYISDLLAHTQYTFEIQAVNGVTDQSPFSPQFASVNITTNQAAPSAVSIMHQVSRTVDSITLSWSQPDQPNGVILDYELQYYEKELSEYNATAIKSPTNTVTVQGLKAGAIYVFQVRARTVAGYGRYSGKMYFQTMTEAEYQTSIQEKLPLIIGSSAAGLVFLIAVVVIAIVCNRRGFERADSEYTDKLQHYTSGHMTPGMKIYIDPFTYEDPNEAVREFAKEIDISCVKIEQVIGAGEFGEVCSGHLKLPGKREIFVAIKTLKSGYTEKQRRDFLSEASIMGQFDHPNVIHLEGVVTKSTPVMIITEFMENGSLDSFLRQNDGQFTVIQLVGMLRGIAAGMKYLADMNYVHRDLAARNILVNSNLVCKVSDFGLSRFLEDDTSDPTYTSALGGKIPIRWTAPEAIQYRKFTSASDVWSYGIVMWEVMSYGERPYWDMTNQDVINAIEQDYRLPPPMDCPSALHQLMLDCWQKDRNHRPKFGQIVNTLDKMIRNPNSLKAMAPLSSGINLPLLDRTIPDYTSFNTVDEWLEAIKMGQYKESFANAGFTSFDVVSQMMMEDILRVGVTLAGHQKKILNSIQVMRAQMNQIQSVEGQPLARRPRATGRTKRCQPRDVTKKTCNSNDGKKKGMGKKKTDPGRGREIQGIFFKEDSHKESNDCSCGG

[5] = biological target: Fyn (UniProt P06241); assay: as above
Sequence of Fyn (P06241 whole entry, looked up): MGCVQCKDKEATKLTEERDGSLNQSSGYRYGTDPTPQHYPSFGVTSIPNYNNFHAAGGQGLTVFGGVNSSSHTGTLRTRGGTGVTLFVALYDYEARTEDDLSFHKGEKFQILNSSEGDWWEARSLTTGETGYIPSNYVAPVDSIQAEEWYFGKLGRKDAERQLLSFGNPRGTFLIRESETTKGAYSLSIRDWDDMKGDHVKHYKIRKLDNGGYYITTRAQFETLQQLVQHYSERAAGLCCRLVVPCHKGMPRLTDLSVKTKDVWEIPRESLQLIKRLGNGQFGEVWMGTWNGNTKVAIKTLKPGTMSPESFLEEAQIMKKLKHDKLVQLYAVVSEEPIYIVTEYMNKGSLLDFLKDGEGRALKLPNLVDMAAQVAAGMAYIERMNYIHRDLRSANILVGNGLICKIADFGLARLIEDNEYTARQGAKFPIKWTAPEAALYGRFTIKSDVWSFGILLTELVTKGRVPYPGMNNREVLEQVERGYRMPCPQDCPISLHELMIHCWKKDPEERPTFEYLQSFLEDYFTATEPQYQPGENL

[6] = biological target: MERTK (UniProt Q12866); assay: as above
[7] = biological target: Jak2 (UniProt O60674); assay: as above
[8] = system: AncSZ; assay: as above
[9] = biological target: FGFR3 (UniProt P22607); assay: as above
Sequence of FGFR3 (P22607 whole entry, looked up): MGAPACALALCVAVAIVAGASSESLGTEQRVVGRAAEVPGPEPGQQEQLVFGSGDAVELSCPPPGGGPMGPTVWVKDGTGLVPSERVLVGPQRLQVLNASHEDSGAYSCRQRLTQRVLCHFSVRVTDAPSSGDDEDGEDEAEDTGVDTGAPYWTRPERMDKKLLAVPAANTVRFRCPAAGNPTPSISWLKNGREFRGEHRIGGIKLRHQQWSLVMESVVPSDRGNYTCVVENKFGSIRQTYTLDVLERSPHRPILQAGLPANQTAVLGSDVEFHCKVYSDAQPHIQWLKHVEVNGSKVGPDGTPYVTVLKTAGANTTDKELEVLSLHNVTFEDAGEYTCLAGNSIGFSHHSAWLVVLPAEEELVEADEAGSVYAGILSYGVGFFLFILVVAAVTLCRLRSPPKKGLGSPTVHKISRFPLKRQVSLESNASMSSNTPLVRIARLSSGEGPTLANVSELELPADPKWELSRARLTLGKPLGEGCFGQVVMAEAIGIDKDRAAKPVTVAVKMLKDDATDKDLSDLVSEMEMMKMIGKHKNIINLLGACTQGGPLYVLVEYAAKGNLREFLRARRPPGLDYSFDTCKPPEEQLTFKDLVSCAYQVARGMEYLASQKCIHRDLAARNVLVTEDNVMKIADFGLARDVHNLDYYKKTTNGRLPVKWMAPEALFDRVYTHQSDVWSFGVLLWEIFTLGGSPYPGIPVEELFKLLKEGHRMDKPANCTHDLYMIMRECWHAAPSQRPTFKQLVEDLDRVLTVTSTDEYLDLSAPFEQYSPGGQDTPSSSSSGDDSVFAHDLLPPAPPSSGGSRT

[10] = biological target: EPHB1 (UniProt P54762); assay: as above
Sequence of EPHB1 (P54762 whole entry, looked up): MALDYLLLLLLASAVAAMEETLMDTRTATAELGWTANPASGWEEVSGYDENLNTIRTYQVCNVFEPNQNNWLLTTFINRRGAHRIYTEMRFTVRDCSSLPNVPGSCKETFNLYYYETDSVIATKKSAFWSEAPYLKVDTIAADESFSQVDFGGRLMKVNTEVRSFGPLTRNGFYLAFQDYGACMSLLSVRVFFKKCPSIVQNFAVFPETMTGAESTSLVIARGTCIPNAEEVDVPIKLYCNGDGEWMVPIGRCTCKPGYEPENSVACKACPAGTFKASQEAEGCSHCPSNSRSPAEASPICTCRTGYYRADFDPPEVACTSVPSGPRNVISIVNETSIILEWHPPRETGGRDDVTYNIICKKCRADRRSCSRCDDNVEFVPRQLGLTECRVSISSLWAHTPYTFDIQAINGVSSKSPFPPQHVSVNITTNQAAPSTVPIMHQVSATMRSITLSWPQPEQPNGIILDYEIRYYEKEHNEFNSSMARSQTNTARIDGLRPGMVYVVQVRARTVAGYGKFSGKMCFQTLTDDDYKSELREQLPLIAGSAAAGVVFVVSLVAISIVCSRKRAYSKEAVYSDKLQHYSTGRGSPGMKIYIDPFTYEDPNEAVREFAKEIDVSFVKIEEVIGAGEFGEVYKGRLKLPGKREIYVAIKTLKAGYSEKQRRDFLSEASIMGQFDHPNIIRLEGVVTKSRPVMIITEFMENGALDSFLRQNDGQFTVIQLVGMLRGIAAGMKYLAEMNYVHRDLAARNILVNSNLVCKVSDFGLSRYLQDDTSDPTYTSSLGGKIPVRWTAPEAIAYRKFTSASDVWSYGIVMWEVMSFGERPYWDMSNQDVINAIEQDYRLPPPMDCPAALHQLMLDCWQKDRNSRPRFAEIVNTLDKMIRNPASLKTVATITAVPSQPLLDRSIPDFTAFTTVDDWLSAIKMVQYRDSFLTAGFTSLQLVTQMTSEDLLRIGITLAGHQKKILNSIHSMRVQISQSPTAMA

[11] = biological target: FGFR1 (UniProt P11362); assay: as above
Sequence of FGFR1 (P11362 whole entry, looked up): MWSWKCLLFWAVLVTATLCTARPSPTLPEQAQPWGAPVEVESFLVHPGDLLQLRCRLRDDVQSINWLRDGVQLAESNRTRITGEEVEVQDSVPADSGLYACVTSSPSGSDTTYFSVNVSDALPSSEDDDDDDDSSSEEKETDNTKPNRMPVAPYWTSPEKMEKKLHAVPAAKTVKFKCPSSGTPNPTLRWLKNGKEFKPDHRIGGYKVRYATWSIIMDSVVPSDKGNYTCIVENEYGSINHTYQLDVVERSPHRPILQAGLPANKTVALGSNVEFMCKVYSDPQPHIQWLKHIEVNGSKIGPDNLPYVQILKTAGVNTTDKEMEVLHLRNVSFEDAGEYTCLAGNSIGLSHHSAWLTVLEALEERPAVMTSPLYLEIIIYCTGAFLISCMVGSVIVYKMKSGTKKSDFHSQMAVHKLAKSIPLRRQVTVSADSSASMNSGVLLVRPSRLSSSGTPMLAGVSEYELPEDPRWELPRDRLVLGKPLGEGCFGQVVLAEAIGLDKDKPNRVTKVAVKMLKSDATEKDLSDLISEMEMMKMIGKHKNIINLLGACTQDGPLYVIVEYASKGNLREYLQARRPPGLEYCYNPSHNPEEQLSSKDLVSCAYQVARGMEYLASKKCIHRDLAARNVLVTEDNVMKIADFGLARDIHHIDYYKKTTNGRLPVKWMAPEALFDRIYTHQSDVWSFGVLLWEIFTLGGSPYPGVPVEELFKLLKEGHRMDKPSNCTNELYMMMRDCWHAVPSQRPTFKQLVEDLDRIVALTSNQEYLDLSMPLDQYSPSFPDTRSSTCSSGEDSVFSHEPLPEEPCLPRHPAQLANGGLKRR

[12] = system: c-Src; assay: as above
[13] = system: c-Abl (mouse); assay: as above
[14] = biological target: Fes (UniProt P07332); assay: as above
[15] = biological target: Hck (UniProt P08631); assay: as above
Sequence of Hck (P08631 whole entry, looked up): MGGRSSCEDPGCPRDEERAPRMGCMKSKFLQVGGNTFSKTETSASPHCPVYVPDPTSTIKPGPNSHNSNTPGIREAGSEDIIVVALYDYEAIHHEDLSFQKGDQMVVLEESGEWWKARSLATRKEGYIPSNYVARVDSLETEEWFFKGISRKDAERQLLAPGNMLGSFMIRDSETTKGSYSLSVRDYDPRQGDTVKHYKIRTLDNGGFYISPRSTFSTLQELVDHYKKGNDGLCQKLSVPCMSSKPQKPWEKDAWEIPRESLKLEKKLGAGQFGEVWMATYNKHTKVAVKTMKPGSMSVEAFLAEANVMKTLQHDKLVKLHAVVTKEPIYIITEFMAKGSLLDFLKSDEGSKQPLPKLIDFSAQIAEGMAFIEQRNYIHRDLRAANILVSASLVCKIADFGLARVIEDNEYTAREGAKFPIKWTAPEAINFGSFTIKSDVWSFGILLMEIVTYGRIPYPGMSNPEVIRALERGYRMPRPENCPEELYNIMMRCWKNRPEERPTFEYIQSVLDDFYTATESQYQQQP

[16] = system: Fer (mouse); assay: as above
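Wherever SH2 binding enrichment of the phosphorylated peptide, bacterial display is given: peptide library displayed on the E. coli surface as eCPX fusions, selected cells deep-sequenced, score is each peptide's frequency after selection divided by its frequency in the input.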
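Wherever phosphorylation enrichment, bacterial display is given: 11-residue human phosphosite peptides and single-mutation variants displayed on the E. coli surface, counted by deep sequencing, each peptide's frequency after selection divided by its frequency in the unselected input library; frequency after pTyr selection over input frequency; kinase dosed for 20-30% of maximal phosphorylation in three min.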

| Sequence | SH2 binding enrichment [1] | SH2 binding enrichment [2] | SH2 binding enrichment [3] | phosphorylation enrichment [4] | phosphorylation enrichment [5] | phosphorylation enrichment [6] | phosphorylation enrichment [7] | phosphorylation enrichment [8] | phosphorylation enrichment [9] | phosphorylation enrichment [10] | phosphorylation enrichment [11] | phosphorylation enrichment [12] | phosphorylation enrichment [13] | phosphorylation enrichment [14] | phosphorylation enrichment [15] | phosphorylation enrichment [16] |
| --- | --- | --- | --- | --- | --- | --- | --- | --- | --- | --- | --- | --- | --- | --- | --- | --- |
| SIKHKYVTALY [KCNH2_Y611_D609H] | 0.761 | 0.484 | 0.63 | 0.4 | 0.43 | 0.407 | 0.528 | 0.537 | 0.594 | 0.399 | 0.45 | 0.398 | 0.444 | 0.582 | 0.524 | 0.398 |
| IRKAEYPFSSE [ATP2C1_Y452] | 0.89 | 0.471 | 0.598 | 0.341 | 0.363 | 0.341 | 0.594 | 0.595 | 0.424 | 0.414 | 0.392 | 0.365 | 0.454 | 0.758 | 0.404 | 0.366 |
| SLNEGYAKDFD [FBP1_Y216_R218K] | 0.788 | 0.598 | 0.84 | 0.6 | 0.534 | 0.437 | 0.71 | 1.02 | 0.716 | 0.508 | 0.566 | 0.371 | 0.589 | 0.937 | 0.525 | 0.511 |
| EKLQQYIAPGM [EPHB3_Y600] | 0.696 | 0.47 | 0.734 | 0.35 | 0.334 | 0.328 | 0.927 | 0.589 | 0.506 | 0.401 | 0.389 | 0.412 | 0.582 | 0.759 | 0.363 | 0.435 |
| LTELGYSFVTT [ACTA1_Y200_R198L] | 0.797 | 8.8 | 3.2 | 1.46 | 1.88 | 1.12 | 1.93 | 3.14 | 3.42 | 1.44 | 5.04 | 1.11 | 1.51 | 3.61 | 1.9 | 2.05 |
| IKGIRYLHHQG [GUCY2D_Y656_R660Q] | 0.871 | 0.829 | 0.716 | 0.387 | 0.378 | 0.455 | 0.414 | 0.684 | 0.45 | 0.45 | 0.465 | 0.428 | 0.403 | 0.587 | 0.401 | 0.417 |

Further lines, with some results ahead:

| SH2 binding enrichment [1] | SH2 binding enrichment [2] | SH2 binding enrichment [3] | Sequence | phosphorylation enrichment [4] | phosphorylation enrichment [5] | phosphorylation enrichment [6] | phosphorylation enrichment [7] | phosphorylation enrichment [8] | phosphorylation enrichment [9] | phosphorylation enrichment [10] | phosphorylation enrichment [11] | phosphorylation enrichment [12] | phosphorylation enrichment [13] | phosphorylation enrichment [14] | phosphorylation enrichment [15] | phosphorylation enrichment [16] |
| --- | --- | --- | --- | --- | --- | --- | --- | --- | --- | --- | --- | --- | --- | --- | --- | --- |
| 0.867 | 0.456 | 0.756 | EQRRAYLEGTC [HLA-C_Y183_L180R] | 0.528 | 0.482 | 0.47 | 0.917 | 0.832 | 0.675 | 0.578 | 0.472 | 0.45 | 0.822 | 1.01 | 0.524 | 0.498 |
| 1.04 | 0.541 | 0.722 | LTNDRYLATLT [IL6ST_Y396] | 0.709 | 0.746 | 0.597 | 0.97 | 0.761 | 0.586 | 0.625 | 0.676 | 0.533 | 1.58 | 1.07 | 0.463 | 0.568 |
| 0.929 | 0.67 | 0.558 | MFNPCYGLFEF [NEDD4L_Y680_Y679C_YF] | 0.65 | 4.92 | 2.85 | 1.07 | 1.33 | 0.766 | 0.633 | 0.578 | 4.79 | 0.917 | 1.27 | 2.27 | 4.76 |
| 1.96 | 1.67 | 1.83 | CTTIHYNFTCN [TP53_Y234_M237T_YF] | 0.6 | 0.443 | 0.42 | 0.704 | 0.797 | 0.593 | 0.448 | 0.496 | 0.441 | 0.634 | 0.866 | 0.414 | 0.426 |
| 0.726 | 0.629 | 0.78 | TFINKYQGKLF [HGD_Y249_V245F] | 0.346 | 0.414 | 0.631 | 0.457 | 0.566 | 0.457 | 0.391 | 0.387 | 0.347 | 0.52 | 0.589 | 0.368 | 0.358 |
